How the values were obtained:
Assay in all cases: cell-based or functional assay
[1] = molecular target: human His6-Gαi2 (expressed in Sf9 cells) (human) (UniProt P04899)
[2] = molecular target: GPA1(1-41)-Gα16(S270P) (GPA1-human Gα16 fusion construct) (yeast; human)
[3] = molecular target: GPA1(1-41)-Gαi2 chimera (first 41 amino acids of yeast Gpa1 fused to amino acids 36-356 of human Gαi2) (yeast; human) (UniProt P08539)
[4] = molecular target: GPA1(1-41)-Gαi3 (GPA1-human Gαi3 fusion construct) (yeast; human) (UniProt P08539)
rat Gαs (rat) = rat Gαs (rat) (UniProt P63095)
yeast GPA1 (yeast) = molecular target: T1, yeast GPA1 (yeast) (UniProt P08539)
T1 sequence (looked up): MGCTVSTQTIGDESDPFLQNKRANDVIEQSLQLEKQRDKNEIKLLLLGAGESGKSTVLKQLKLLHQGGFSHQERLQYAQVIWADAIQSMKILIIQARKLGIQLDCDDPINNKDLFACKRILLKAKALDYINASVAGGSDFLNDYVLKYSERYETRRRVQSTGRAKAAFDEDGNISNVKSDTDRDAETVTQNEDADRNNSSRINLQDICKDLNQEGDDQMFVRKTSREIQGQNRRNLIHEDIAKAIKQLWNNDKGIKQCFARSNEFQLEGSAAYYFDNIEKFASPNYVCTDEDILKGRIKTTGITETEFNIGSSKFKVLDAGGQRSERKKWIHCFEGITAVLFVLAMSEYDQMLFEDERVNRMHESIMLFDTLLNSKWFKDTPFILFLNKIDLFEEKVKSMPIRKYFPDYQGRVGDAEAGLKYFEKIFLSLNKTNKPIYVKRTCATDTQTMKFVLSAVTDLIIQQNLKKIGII

rat Gαs (rat), sequence (P63095 whole entry): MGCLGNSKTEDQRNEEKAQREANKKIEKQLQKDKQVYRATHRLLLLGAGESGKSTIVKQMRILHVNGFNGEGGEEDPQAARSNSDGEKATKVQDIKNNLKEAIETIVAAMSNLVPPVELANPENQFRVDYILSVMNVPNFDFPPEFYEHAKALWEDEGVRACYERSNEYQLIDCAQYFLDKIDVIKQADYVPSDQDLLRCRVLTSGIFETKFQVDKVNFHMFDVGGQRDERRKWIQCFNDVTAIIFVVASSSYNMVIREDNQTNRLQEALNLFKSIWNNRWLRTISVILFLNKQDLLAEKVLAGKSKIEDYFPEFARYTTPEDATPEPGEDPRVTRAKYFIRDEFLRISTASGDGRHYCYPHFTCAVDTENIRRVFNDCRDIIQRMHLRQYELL
human His6-Gαi2 (expressed in Sf9 cells) (human), sequence (P04899 whole entry, the tested form may be a part): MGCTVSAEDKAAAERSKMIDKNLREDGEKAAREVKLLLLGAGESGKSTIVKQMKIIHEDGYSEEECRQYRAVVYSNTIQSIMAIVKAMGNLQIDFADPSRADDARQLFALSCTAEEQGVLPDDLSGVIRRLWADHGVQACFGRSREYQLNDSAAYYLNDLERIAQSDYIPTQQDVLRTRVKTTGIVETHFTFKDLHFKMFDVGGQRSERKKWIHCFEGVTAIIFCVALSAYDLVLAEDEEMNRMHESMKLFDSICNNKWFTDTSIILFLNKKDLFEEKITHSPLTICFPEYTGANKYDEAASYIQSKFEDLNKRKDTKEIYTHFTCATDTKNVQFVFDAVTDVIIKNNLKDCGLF

B1: GST-AGS1 (N-terminal GST fusion of AGS1, expressed in yeast from the CUP1 promoter on plasmid pYEX-4T1) (protein, not shown: a dimerising Fc or GST)
chain: MKLAAMIKKMCPSDSELSIPAKNCYRMVILGSSKVGKTAIVSRFLTGRFEDAYTPTIEDFHRKFYSIRGEVYQLDILDTSGNHPFPAMRRLSILTGDVFILVFSLDNRDSFEEVQRLRQQILDTKSCLKNKTKENVDVPLVICGNKGDRDFYREVDQREIEQLVGDDPQRCAYFEISAKKNSSLDQMFRALFAMAKLPSEMSPDLHRKVSVQYCDVLHKKALRNKKLLRAGSGGGGGDPGDAFGIVAPFARRPSVHSDLMYIREKASAGSQAKDKERCVIS
For B1, the GTPγS binding to purified Gα (filter binding of GTPγ35S, 40 min) [1] was 25%.

B2: AGS1 (Activator of G protein Signaling, human, 281 amino acids) (protein)
chain: MKLAAMIKKMCPSDSELSIPAKNCYRMVILGSSKVGKTAIVSRFLTGRFEDAYTPTIEDFHRKFYSIRGEVYQLDILDTSGNHPFPAMRRLSILTGDVFILVFSLDNRDSFEEVQRLRQQILDTKSCLKNKTKENVDVPLVICGNKGDRDFYREVDQREIEQLVGDDPQRCAYFEISAKKNSSLDQMFRALFAMAKLPSEMSPDLHRKVSVQYCDVLHKKALRNKKLLRAGSGGGGGDPGDAFGIVAPFARRPSVHSDLMYIREKASAGSQAKDKERCVIS
B2 was tested, and the β-galactosidase activity (FUS1p-lacZ reporter in yeast, AGS1, galactose) (relative β-galactosidase activity) [2] was 22.5, the β-galactosidase activity (FUS1p-lacZ reporter in yeast, AGS1, galactose) (relative β-galactosidase activity) [3] was 125 and the β-galactosidase activity (FUS1p-lacZ reporter in yeast, AGS1, galactose) (relative β-galactosidase activity) [4] was 63.3. The β-galactosidase activity (FUS1p-lacZ reporter in yeast, AGS1, galactose) (relative β-galactosidase activity) (rat Gαs (rat)) was 6.4 and the β-galactosidase activity (FUS1p-lacZ reporter in yeast, AGS1, galactose) (relative β-galactosidase activity) (yeast GPA1 (yeast)) was 7.6.

Reference: patent US20040180375A1
